In article PMC6958382, “27th Annual GP2A Medicinal Chemistry Conference” (Pharmaceuticals, 2019):

Biological target: T1, β2-adrenergic receptor (β2-AR) (Homo sapiens (assumed), UniProt P07550)
T1 construct: β2-adrenoceptor (β2-AR), crystallised in the active state with a catecholamine-type agonist (super-epi or super-iso) and Nb6B9; Conference abstract (poster P20) with no methods; also called ß2-AR
Experiment: crystal structure; co-crystal structures of β2-AR with super-epi or super-iso, bound to Nb6B9; active state of the receptor (Figure 17 legend)
Settings: both partners purified

binding result: binds
B1: Nb6B9 (VHH)
VHH: QVQLQESGGGLVQAGGSLRLSCAASGSIFALNIMGWYRQAPGKQRELVAAIHSGGTTNYANSVKGRFTISRDNAANTVYLQMNSLKPEDTAVYYCNVKDFGAIIYDYDYWGQGTQVTVSS
